Laboratory results reported in US20170275380A1 (ROCHE DIAGNOSTICS OPERATIONS, published 2017).
Values belong to the binder of their own block, whether it stands above or below them. No end group written: not given here.

Legend:
[1] = molecular target: T1, IGF-1R(1340-1366)[1346-pTyr; Glu(Bi-PEG-1340]amid (phosphotyrosine at 1346; PEG-linker with biotin bound via glutamic acid corresponding to position 1340; C-terminal amide); assay: SPR (Biacore 2000, 25 C); hybridoma supernatant 1:2 over biotinylated peptide on SA chip
T1 construct: also called pIGF-1R peptide (biotinylated); phosphorylated IGF-1R peptide
T1 peptide: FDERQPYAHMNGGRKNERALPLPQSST
Method: (§1) Further, surface plasmon resonance was used to determine the antigen specificity. A BIACORE™ 2000 instrument (GE Healthcare) was used with a BIACORE™ SA sensor mounted into the system at T=25° C. and was preconditioned at 100 μl/min with 3×1 min injection of 1 M NaCl in 50 mM NaOH and 1 min 10 mM HCl. The system buffer was HBS-ET (10 mM HEPES pH 7.4, 150 mM NaCl, 1 mM EDTA, 0.05% TWEEN® 20). The sample buffer was the system buffer+1 mg/ml CMD (Carboxymethyldextrane, Sigma).
(§2) Subsequently, biotinylated peptides were captured on the SA surface in the respective flow cells. The flow cells finally were saturated with 2 μM d-biotin. […] Flow cell 1 served as a reference. A blank buffer injection was used instead of an antigen injection to double reference the data by buffer signal subtraction. The data was evaluated according to the BIACORE™ evaluation software 1.1.1. The signal height was measured at the end of the injection time, Binding Late (RU).

[2] = molecular target: T2, IGF-1R(1340-1366); Glu(Bi-PEG-1340]amid (PEG-linker with biotin bound via glutamic acid corresponding to position 1340; C-terminal amide); assay: as above
T2 construct: also called IGF-1R peptide (biotinylated, non-phosphorylated); IGF-1R(1340-1366)PEG-Bi
T2 peptide: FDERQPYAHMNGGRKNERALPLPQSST
Method: as §1, §2

[3] = molecular target: Bi-InsulinR(1356-1382)p1361 (phosphotyrosine at 1361; biotin); assay: as above
Sequence of Bi-InsulinR(1356-1382)p1361 (phosphotyrosine at 1361; biotin) (peptide, as listed by the source): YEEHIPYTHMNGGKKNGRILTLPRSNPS
Method: as §1, §2

[4] = molecular target: T3, human HER3(1242-1267)-Bi-PEG-amide (human, Bi-PEG (biotin-PEG); C-terminal amide); assay: SPR kinetic screening (Biacore A100); mAb captured by anti-mouse IgG Fc; peptide grafted on streptavidin as analyte; Langmuir model; anti-HER3 antibody, HER3 peptide
T3 construct: Injected as analyte singly grafted on streptavidin; also called HER3 peptide
T3 peptide: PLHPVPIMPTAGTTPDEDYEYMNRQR
Method: (§3) A BIACORE™ A100 instrument under control of the software version V1.1 is used. A BIACORE™ CMS chip is mounted into the instrument and is hydrodynamically addressed conditioned according to the manufacturer's instructions. As a running buffer an HBS-EP buffer is used (10 mM HEPES (pH 7.4), 150 mM NaCl, 1 mM EDTA, 0.05% (w/v) P20). A polyclonal rabbit anti-mouse IgG Fc capture antibody is immobilized at 30 μg/ml in 10 mM sodium acetate buffer (pH 4.5) to spots 1, 2, 4 and 5 in flow cells 1, 2, 3 and 4 at 10,000 RU. The antibody is covalently immobilized via NHS/EDC chemistry. The sensor is deactivated thereafter with a 1 M ethanolamine solution. Spots 1 and 5 are used for the determination and spots 2 and 4 are used as reference. Prior to application to the sensor chip the hybridoma supernatants containing mAbs are diluted 1:2 in HBS-EP buffer. The diluted solution is applied at a flow rate of 30 μl/min for 1 min. Immediately thereafter the analyte, human HER3(1242-1267)-Bi-PEG-amide (SEQ ID NO:26) or human HER2(1223-1236)-Bi-PEG-amide (SEQ ID NO:25), singly grafted on streptavidin, is injected at a flow rate of 30 μl/min for 2 min. Thereafter, the signal is recorded for 5 min dissociation time. The sensor is regenerated by injecting a 10 mM glycine-HCl solution (pH 1.7) for 2 min, at a flow rate of 30 μl/min.

[5] = molecular target: T4, human HER2(1223-1236)-Bi-PEG-amide (human, also: Bi-PEG (biotin-PEG), place not given here); assay: SPR kinetic screening (Biacore A100); mAb captured by anti-mouse IgG Fc; peptide grafted on streptavidin as analyte; Langmuir model; anti-HER2 antibody, HER2 peptide
T4 construct: Injected as analyte singly grafted on streptavidin; also called HER2 peptide
T4 peptide: WDQDPPERGAPPST-NH2
Method: as §3

Binding Late (RU) [1]: 265 RU
Binding Late (RU) [2]: 199 RU
Binding Late (RU) [3]: 0 RU
B1: mAb 1.4.168 (antibody, V domains shown)
VH: DVKLVESGGGLVKPGGSLKLSCAASGFTFSDYPMSWVRQTPEKRLEWVATITTGGTYTYYPDSIKGRFTISRDNAKNTLYLQMGSLQSEDAAMYYCTRVKTDLWWGLAYWGQGTLVTVSA
VL: QLVLTQSSSASFSLGASAKLTCTLSSQHSTYTIEWYQQQPLKPPKYVMELKKDGSHTTGDGIPDRFSGSSSGADRYLSISNIQPEDESIYICGVGDTIKEQFVYVFGGGTKVTVLG
notes: Murine monoclonal IgG from hybridoma; also called M-1.4.168-IgG; M-1.004.168-IgG

koff [4]: 0.0023 s⁻¹
B2: antibody 7.2.32 (antibody, V domains shown)
VH: EVQLQESGGGLVQPKGSLQLSCAASGFTFNTYAMHWVRQAPGKGLEWVARIRTESSDYATDYADSVKDRFIISRDDSQNMLYLQMNNLKSEDTAIYYCVRSSGFDYWGQGTTLTVSS
VL: DIQMTQSPSLPVSLGDQASISCRSSQSLVHDNGNTYLHWFLQKPGQSPKLLIYKVSNRFSGVPDRFGGSGSGTDFTLKISGVEAEDLGVYFCSQGTHVPTFGGGTKLEIK
notes: Mouse monoclonal antibody, tested from hybridoma supernatant captured by anti-mouse IgG Fc; also called selected antibody directed against HER3

koff [5]: 0.000963 s⁻¹
B3: antibody 4.1.43 (antibody, V domains shown)
VH: EVQLQQSGPVLVKPGASVKMSCRPSGYTFTDYNMHWVKQSHEKSLEWIGYINPKNGIISYNQKFKDKATLTVNKSSRTAYMELRSLTSEDSAVYFCAGDYWGQGTSVTVSS
VL: DVVMTQTPLSLPVSLGDQASISCRSSQSLVHSNGNTYLHWYLQKPGQSPKLLISKVSNRFSGVPDRFSGSGSGTDFTLKISRVEAEDLGVYFCSQSIHLPWTFGGGTKLEIK
notes: Mouse monoclonal antibody, tested from hybridoma supernatant captured by anti-mouse IgG Fc; also called selected antibody directed against HER2
